Data reported in patent US12491255 (ARO BIOTHERAPEUTICS, dated 2025).

Columns and labels:
[1] = target: T1, human EpCAM on COLO-205 cells (human, UniProt P16422 24-314); assay: flow cytometry, ratio of the signal on COLO-205 (EpCAM+) to that on A375 (EpCAM-) cells
T1 construct: whole, on cells; Endogenous EpCAM of the EpCAM-positive cell line COLO-205; also called epithelial cell adhesion molecule; Colo205 (EpCAM+)
T1 sequence (looked up): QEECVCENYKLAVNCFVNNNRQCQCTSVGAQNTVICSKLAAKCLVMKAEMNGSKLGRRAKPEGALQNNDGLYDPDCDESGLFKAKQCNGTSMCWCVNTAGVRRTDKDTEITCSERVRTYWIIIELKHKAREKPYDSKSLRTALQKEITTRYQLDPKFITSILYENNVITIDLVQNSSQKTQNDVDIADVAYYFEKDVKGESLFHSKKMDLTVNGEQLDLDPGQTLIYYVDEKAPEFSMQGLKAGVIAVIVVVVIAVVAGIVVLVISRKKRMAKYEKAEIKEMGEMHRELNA
Method: (§1) Three rounds of CIS display panning on recombinant huEpCAM protein (R&D Systems) were performed using TCL23 as described previously. The output from Round 3 was amplified and cloned into phagemid vector containing truncated pIII. An additional 4 rounds of selection on recombinant protein human EpCAM and Colo 205 (positive cells) with negative selection on A375 (negative cells) was performed. After 4 rounds of selection on recombinant protein and Colo 205 cells, 96 individual clones were assayed for binding to Colo 205 cells by phage ELISA; EpCAM negative cells (A375) were used as a negative control. Phage binding was assessed using a labeled anti-M13 antibody. Clones that were positive by phage ELISA were subcloned into a bispecific Centyrin expression plasmid where the carboxy terminal domain was an albumin binding Centyrin (H9). Soluble Centyrins were expressed, recovered from periplasmic extracts and assessed for binding to Colo205 (EpCAM+) and A375 (EpCAM-) (Table 4).

[2] = target: T1, human EpCAM on COLO-205 cells; assay: flow cytometry, periplasmic extract of soluble Centyrin on COLO-205 (EpCAM+) cells
Method: as §1

[3] = target: T1, human EpCAM on COLO-205 cells; assay: cell-based or functional assay

B1: EpCAM binding FN3 domain clone 1807 (designed binder)
chain: MLPAPKNLVVSRVTEDSARLSWTAPDAAFDSFYIRYYEGSGYGEAIVLTVPGSERSYDLTGLKPGTEYYVYIGGVKGGSPSSPLSAIFTTG
notes: not shown: No entry is named H9
**Q.** With B1 as the binder, how does the COLO-205/A375 [1] read?
**A.** 4.4

**Q.** And the “Mean BL-1 P.E. COLO-205” value [2]?
**A.** 12900

B2: EpCAM FN3 domain-MMAF conjugate of clone 639 (designed binder)
chain: MLPAPKNLVVSRVTEDSARLSWTAPDAAFDSFSISYRERSAWGEAIALVVPGSERSYDLTGLKPGIEYIVGIIGVKGGLRSNPLRADFTT
modifications: VC-MMAF (maleimide) on a cysteine; position of the cysteine not stated
**Q.** B2 was tested. Which “IC50 of EpCAM FN3 domain-MMAF conjugate molecules in COLO-205 Cells (cell viability, Cell TiterGlo, 72 hours)” value [3] did it give?
**A.** 2.2 nM

B3: EpCAM binding FN3 domain clone 639 (designed binder)
chain: MLPAPKNLVVSRVTEDSARLSWTAPDAAFDSFSISYRERSAWGEAIALVVPGSERSYDLTGLKPGIEYIVGIIGVKGGLRSNPLRADFTT
notes: as for B1
**Q.** What does the source list for B3?
**A.** COLO-205/A375 [1]: 11; Mean BL-1 P.E. COLO-205 [2]: 10100

B4: EpCAM FN3 domain-MMAF conjugate of clone 680 (designed binder)
chain: MLPAPKNLVVSRVTEDSARLSWTAPYAAFDSFAISYRERSREGEVIALTVPGSERSYDLTGLKPGTEYIVGILGVKGGRRSKPLRAQFTT
modifications: VC-MMAF (maleimide) on a cysteine; position of the cysteine not stated
**Q.** For B4, which “IC50 of EpCAM FN3 domain-MMAF conjugate molecules in COLO-205 Cells (cell viability, Cell TiterGlo, 72 hours)” value [3] is on record?
**A.** 0.11 nM

B5: EpCAM binding FN3 domain clone 680 (designed binder)
chain: MLPAPKNLVVSRVTEDSARLSWTAPYAAFDSFAISYRERSREGEVIALTVPGSERSYDLTGLKPGTEYIVGILGVKGGRRSKPLRAQFTT
notes: as for B1
**Q.** How did the COLO-205/A375 [1] turn out when B5 was run?
**A.** 11.9

**Q.** What about the “Mean BL-1 P.E. COLO-205” value [2] of the same binder?
**A.** 10400

B6: EpCAM binding FN3 domain clone 1420 (designed binder)
chain: MLPAPKNLVVSRVTEDSARLSWEGYRNNAHFDSFLIQYQESEKVGEAIVLTVPGSERSYDLTGLKPGTEYTVSIYGVVAAVPRNYYSNPLSAIFTT
notes: as for B1
**Q.** How did the COLO-205/A375 [1] turn out when B6 was run?
**A.** 25.8

**Q.** And the “Mean BL-1 P.E. COLO-205” value [2]?
**A.** 22600

B7: EpCAM binding FN3 domain clone 1874 (designed binder)
chain: MLPAPKNLVVSRVTEDSARLSWTAPDAAFDSFKIGYWEWRKYGEAIELNVPGSERSYDLTGLKPGTEYRVLIYGVKGGAGSHPLRALFTT
notes: as for B1
**Q.** How did the COLO-205/A375 [1] turn out when B7 was run?
**A.** 12.1

**Q.** And the “Mean BL-1 P.E. COLO-205” value [2]?
**A.** 27100
